Data set [1] has as its target T1, Kv3.4a/Kv3.1b heteromeric channels (Rattus norvegicus, UniProt P25122+Q63734).
T1 construct: expressed in transfected cells; host or cells: HEK293
T1 sequence (Q63734 1-625): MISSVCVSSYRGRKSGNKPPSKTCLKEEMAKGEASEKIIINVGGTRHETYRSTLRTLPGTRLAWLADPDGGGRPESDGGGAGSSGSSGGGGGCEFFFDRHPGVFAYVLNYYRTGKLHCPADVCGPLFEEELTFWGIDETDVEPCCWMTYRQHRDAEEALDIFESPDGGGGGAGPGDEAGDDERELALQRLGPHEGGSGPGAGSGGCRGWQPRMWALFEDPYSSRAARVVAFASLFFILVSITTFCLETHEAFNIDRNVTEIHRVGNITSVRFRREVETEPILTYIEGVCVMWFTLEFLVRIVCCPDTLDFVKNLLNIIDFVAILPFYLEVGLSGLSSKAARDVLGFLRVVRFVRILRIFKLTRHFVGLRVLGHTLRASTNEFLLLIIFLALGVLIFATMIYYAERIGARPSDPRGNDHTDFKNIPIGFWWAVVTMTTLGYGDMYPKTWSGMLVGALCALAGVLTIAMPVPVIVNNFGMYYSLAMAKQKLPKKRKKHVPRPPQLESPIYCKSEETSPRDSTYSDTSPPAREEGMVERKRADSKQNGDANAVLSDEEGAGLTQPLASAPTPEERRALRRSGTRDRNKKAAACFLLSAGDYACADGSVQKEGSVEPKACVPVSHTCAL
T1 sequence (P25122 1-585): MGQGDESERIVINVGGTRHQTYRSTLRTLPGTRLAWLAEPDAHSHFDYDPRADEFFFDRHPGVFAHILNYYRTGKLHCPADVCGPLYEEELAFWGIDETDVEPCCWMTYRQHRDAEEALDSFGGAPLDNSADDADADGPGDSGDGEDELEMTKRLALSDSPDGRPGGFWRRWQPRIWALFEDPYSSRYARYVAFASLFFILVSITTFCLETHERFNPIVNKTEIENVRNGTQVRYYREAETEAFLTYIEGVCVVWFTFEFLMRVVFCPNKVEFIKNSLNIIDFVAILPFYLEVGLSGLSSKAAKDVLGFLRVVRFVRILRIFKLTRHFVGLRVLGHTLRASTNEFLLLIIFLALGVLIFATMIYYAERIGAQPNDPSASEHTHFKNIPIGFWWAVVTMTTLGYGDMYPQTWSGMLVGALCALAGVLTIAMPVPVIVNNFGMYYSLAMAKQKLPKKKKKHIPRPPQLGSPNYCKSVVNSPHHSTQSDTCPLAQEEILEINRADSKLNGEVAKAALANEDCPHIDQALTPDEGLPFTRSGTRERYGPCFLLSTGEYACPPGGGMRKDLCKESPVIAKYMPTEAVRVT
Type of data set: cell-based. The source says:
Electrophysiology. Whole-cell recordings used standard techniques^27,28. The internal solution consisted of (in mM): 30-90 K2SO4, 0-60 N-methyl-D-glucamine, 2 MgCl2, 40 HEPES, 5 EGTA, 12 phosphocreatine, 2 Na2ATP, 0.2 Na3GTP, and 0.1 leupeptin, pH 7.2 with H2SO4 (osmolarity 260-270 mOsm/l). The external solution consisted of (in mM): 140 Na-isethionate, 2 KCl, 4 MgCl2, 10 HEPES, 12 glucose and 0.001 TTX, pH 7.35 with NaOH (osmolarity 295-305 mOsm/l). The internal solution for current clamp recordings consisted of (in mM) 110 potassium methylsulphate, 2 MgCl2, 40 HEPES, 5 EGTA, 12 phosphocreatine, 2 Na2ATP, 0.2 Na3GTP, and 0.1 leupeptin, pH 7.2 with H2SO4 (osmolarity 260-270 mOsm/l). In the case of current clamp recordings, TTX was omitted from external solution. For the recordings in the presence of Ca^+2 ions EGTA was omitted from internal solution and 4 mM of MgCl2 was substituted by 2 mM of CaCl2 and 2 mM of MgCl2. […] Recordings were obtained with Axon Instruments 200 patch-clamp amplifier and controlled and monitored with a PC running pClamp software (version 7.0) (Axon Instruments Inc., Union City, Calif.). […] After seal rupture, series resistance (2-10 MΩ) was compensated (75-90%) and periodically monitored. […]
Single cell RT-PCR (scRT-PCR). […] In the case of co-transfection with Kv3.4a and Kv3.1b cDNA, single cell RT-PCR was used to confirm the presence of both mRNAs in the recorded cell. […]

The target of data set [2] is Kv3.4 protein (native, rat brain membranes / fast-spiking neurons) (rat) (UniProt Q63734). Briefly: cell-based or functional assay.
The next data set has as its system Kv3.4 mRNA. Briefly: siRNA suppression of Kv3.4 mRNA in HEK293/Kv3.4 cells, real-time quantitative PCR. The note with it: normalized to transfection efficiency (60%). In kind it is cell-based, rat. How it is done:
For example, mammalian cells expressing the potassium channel were tested with siRNA vectors. HEK 293/Kv3.4a cells were generated by stable transfection with a linearized form of pcDNA3/Kv3.4a (Baranauskas et al., Nat Neurosci., 6:258 (2003)), and geneticin selection of a single clone. Kv3.4 expression was confirmed by quantitative PCR and Western blotting. Four target sequences were chosen (#1, #2, #3, and #4, described in more detail below). HEK293/Kv3.4 cells were transfected with these siRNA. To monitor transfection efficiency fluorescein labeled luciferase GL2-F1 siRNA (Dharmacon) was used. In transfected cells, labeled duplexes are detectable as discrete punctate cytoplasmic dots (Holen et al., Nucleic Acids Res., 30:1757 (2002)). Transfection efficiency was 60%, probably, due to high passage number.
Real-time quantitative PCR employing SYBR green fluorescence detection was used to measure Kv3.4 cDNA abundance. As a control for the non-specific effects of siRNA duplexes, siRNA targeting Kv3.1 was used. The differences in the amount of extracted RNA were taken into account by normalization to β-actin. Variability in the amplification during PCR reactions was estimated by running five PCR reactions for the same cDNA sample. […]

The target of the next data set is Kv3.1b (rat) (UniProt P25122). Briefly: cell-based or functional assay.

As to `CC[N+](CC)(CC)CC` [TEA, tetraethylammonium], the “block of K+ currents in Kv3.4a/Kv3.1b co-transfected HEK293 cells” value in data set [1] is on record as “blocked”.

For “BDS-I (from UniProt P11494 1-43) (peptide)”, the duration of spikes in FS neurons in data set [2] is 53%.

For the molecule “duplex #4: 21-nt double-stranded RNA targeting rat Kv3.4 site D, GGCAGTGTTGAGCCGAAAC (SEQ ID NO:4), position 1825-1843 (second strand not cited, further chemistry not given here; listed as Rattus rattus)”, the “estimated suppression of the levels of Kv3.4 mRNA in the transfected cells” value in the data set with Kv3.4 mRNA is listed as 50%.

B1: Kv3.4a (protein, rat, UniProt Q63734 1-625, looked up)
chain: MISSVCVSSYRGRKSGNKPPSKTCLKEEMAKGEASEKIIINVGGTRHETYRSTLRTLPGTRLAWLADPDGGGRPESDGGGAGSSGSSGGGGGCEFFFDRHPGVFAYVLNYYRTGKLHCPADVCGPLFEEELTFWGIDETDVEPCCWMTYRQHRDAEEALDIFESPDGGGGGAGPGDEAGDDERELALQRLGPHEGGSGPGAGSGGCRGWQPRMWALFEDPYSSRAARVVAFASLFFILVSITTFCLETHEAFNIDRNVTEIHRVGNITSVRFRREVETEPILTYIEGVCVMWFTLEFLVRIVCCPDTLDFVKNLLNIIDFVAILPFYLEVGLSGLSSKAARDVLGFLRVVRFVRILRIFKLTRHFVGLRVLGHTLRASTNEFLLLIIFLALGVLIFATMIYYAERIGARPSDPRGNDHTDFKNIPIGFWWAVVTMTTLGYGDMYPKTWSGMLVGALCALAGVLTIAMPVPVIVNNFGMYYSLAMAKQKLPKKRKKHVPRPPQLESPIYCKSEETSPRDSTYSDTSPPAREEGMVERKRADSKQNGDANAVLSDEEGAGLTQPLASAPTPEERRALRRSGTRDRNKKAAACFLLSAGDYACADGSVQKEGSVEPKACVPVSHTCAL
In the data set with Kv3.1b (rat), B1 returned a fast inactivation time constant of K+ currents in co-transfected HEK293 cells of 38 ms; a mean burst duration (long bursts), single channel recording of co-transfected HEK293 cells of 250 ms; a mean burst duration (short bursts), single channel recording of co-transfected HEK293 cells of 16.2 ms.

Source of the values: US7629323B2, “Manipulation of neuronal ion channels” (Northwestern University, priority 2003, dated 2009).
